Target: PP2A core enzyme (A–C core dimer) (human) (UniProt P30153)
Experiment: ITC

UniProt P30153, sequence (P30153 whole entry, chain 1 of 2): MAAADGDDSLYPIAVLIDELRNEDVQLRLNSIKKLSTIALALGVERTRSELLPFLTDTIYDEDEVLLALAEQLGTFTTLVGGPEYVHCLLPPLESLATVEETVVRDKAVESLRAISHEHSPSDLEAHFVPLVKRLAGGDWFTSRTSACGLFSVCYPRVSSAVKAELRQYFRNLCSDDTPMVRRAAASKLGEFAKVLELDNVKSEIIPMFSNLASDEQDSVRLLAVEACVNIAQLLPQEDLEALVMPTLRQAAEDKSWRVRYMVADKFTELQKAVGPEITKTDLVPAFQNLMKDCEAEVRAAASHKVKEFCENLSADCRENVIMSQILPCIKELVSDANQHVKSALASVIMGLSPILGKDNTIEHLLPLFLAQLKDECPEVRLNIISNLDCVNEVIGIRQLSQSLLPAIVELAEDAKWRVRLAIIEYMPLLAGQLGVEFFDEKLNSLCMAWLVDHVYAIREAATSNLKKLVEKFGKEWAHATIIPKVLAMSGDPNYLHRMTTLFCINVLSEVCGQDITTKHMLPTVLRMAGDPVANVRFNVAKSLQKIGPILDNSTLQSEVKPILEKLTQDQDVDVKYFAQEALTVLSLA
UniProt P30153, sequence (P67775 whole entry, chain 2 of 2, further chain): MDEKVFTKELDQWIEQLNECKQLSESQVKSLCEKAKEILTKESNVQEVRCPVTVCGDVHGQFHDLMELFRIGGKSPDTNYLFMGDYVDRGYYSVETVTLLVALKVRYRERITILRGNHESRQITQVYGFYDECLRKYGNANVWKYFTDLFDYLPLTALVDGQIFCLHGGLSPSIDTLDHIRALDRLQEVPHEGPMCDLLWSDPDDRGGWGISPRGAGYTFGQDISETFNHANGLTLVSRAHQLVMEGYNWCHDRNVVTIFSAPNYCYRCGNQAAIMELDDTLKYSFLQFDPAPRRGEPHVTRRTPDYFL

## LCMT-1 T29V (enzyme)
  fold increase of the binding affinity against wild type LCMT-1: 4 fold

Reference: article PMC3060061
